In patent US20110207917A1 one finds % reduction of binding after Grp78 siRNA transfection data, which are given here for one substance.

For this test, the target named is SAM-6 Receptor (SAM-6/R) glycoprotein, about 80 kDa Grp78 variant of tumor cells (human) (UniProt P11021). Put plainly: FACS on BXPC-3 cells transfected with Grp78 siRNA.
Sequence of SAM-6 Receptor (SAM-6/R) glycoprotein, about 80 kDa Grp78 variant of tumor cells (human) (P11021 18-654, change not shown): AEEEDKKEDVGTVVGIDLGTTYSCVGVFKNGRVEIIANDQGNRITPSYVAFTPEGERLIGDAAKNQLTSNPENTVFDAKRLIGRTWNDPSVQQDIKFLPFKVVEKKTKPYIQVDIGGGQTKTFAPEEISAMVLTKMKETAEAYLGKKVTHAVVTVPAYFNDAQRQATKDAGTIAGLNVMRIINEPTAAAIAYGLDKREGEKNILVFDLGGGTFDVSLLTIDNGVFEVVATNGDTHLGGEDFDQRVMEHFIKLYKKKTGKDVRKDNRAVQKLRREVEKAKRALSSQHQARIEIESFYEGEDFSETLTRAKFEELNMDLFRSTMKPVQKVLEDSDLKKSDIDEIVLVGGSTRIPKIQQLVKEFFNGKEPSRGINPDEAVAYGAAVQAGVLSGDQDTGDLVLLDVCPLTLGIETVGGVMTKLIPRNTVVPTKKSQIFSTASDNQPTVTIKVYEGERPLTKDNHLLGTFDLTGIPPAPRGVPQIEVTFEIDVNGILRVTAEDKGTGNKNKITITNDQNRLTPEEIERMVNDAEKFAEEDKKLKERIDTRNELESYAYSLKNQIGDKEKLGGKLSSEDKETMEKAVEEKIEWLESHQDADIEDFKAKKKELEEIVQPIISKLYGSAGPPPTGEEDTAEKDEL

In turn, anti-GRP78 antibody clone ET-21 (Sigma) had a % reduction of binding after Grp78 siRNA transfection of 76%.
